Experiments:
recombinant soluble FLT3 [1] = target: T1, recombinant soluble FLT3 (human, UniProt P36888 27-541, limits assumed); assay: ELISA on recombinant soluble FLT3 (FIG. 1C)
T1 construct: For the ELISA it says only 'recombinant soluble FLT3'; also called soluble recombinant FLT3; Fms-like tyrosine kinase 3
T1 sequence (looked up): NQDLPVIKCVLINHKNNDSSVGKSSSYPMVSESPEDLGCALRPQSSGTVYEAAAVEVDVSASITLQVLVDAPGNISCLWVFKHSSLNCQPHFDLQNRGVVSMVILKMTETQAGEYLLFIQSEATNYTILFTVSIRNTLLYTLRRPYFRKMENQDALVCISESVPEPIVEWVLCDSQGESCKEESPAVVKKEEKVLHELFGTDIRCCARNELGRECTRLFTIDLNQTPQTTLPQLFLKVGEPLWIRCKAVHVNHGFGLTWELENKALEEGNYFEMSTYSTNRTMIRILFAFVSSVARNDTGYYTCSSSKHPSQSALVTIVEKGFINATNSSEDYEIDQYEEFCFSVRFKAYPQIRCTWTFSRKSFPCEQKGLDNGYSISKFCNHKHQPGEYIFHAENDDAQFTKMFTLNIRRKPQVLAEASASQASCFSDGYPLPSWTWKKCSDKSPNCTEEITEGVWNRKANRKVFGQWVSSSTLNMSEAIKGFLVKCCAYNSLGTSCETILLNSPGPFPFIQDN

cell-surface FLT3 = target: T2, cell-surface FLT3 (UniProt P36888 27-993, limits assumed); assay: flow cytometry on RS4;11 cells, anti-His-PE detection
T2 construct: whole, on cells; also called FLT3 on FLT3-positive RS4; 11 cells
T2 sequence (looked up): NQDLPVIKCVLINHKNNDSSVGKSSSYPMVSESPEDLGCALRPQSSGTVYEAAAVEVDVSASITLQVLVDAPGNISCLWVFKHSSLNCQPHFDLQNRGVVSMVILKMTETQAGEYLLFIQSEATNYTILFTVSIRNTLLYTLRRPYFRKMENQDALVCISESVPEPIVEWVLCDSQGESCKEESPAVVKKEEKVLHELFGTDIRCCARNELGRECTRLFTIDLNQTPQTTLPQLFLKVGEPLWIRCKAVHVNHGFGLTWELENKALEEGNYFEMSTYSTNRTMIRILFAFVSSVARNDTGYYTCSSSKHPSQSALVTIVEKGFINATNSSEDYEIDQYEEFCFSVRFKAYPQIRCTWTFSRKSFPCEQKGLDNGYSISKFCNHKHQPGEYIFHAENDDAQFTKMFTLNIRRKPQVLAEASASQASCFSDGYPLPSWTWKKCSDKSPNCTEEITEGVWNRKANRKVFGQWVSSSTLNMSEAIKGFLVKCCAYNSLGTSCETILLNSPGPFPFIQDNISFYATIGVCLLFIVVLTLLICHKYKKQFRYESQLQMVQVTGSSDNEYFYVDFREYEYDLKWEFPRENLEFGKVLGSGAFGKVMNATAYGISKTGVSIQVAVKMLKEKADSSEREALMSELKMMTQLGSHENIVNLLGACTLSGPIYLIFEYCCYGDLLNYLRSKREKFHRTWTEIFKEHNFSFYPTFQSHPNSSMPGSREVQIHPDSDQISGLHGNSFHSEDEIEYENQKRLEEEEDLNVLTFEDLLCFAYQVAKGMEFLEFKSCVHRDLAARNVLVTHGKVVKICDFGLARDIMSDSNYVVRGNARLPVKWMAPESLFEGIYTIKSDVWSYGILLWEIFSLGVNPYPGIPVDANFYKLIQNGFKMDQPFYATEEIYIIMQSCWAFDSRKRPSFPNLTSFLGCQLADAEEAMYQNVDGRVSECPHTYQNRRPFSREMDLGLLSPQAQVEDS

recombinant soluble FLT3 [2] = target: T1, recombinant soluble FLT3; assay: ELISA on recombinant soluble FLT3 (FIG. 1B)
recombinant soluble FLT3 [3] = target: T1, recombinant soluble FLT3; assay: ELISA on recombinant soluble FLT3 (FIG. 1A)

B1: m1012 (VHH)
VHH: EVQLVESGGGLVQPGGSLRLSCAASRFYFSGYEMSWVRQAPGKGLEWVSAISGSGGSTYYADSVKGRFTISRDNSKNTLYLQMNSLRAEDTAVYYCARRVVGAKLYFQHWGQGTLVTVSS
notes: Human VH single-domain antibody (not camelid) from a phage display VH domain library; Detected with anti-His-PE; also called single-domain antibody m1012
- binding result (recombinant soluble FLT3 [1]): binds
- binding result (cell-surface FLT3): binds

B2: m1009 (scFv)
scFv: EVQLVQSGGGLVQPGGSLRLSCAASGFTFSSYAMSWVRQAPGKGLEWVSGISWNSGSIGYADSVKGRFTISRDNAKNSLYLQMNSLRAEDTALYYCAKVGGGGAFDIWGQGTMVTVSSGGGGSGGGGSGGGGSQSVLTQPPSVSAAPGQKVTISCSGSSSSIGDNYVSWYQQVPGTAPKLLIYGNNKRPSGIPDRLSGSKSGTSATLGITGLQTGDEADYYCGTWDNSLGGVFGGGTKLTVL
notes: Fully human; isolated from a phage display scFv library; Detected with anti-His-PE
- binding result (recombinant soluble FLT3 [2]): binds
- binding result (cell-surface FLT3): binds

B3: m1006 (antibody, V domains shown)
VH: EVQLVESGGGLVQPGGSLRLSCAASGFTFSSYGMHWVRQAPGKGLEWVAVISYDGSNKYYADSVKGRFTISRDNSKNTLYLQMNSLRAEDTAVYYCANLAPWAAYWGQGTLVTVSS
VL: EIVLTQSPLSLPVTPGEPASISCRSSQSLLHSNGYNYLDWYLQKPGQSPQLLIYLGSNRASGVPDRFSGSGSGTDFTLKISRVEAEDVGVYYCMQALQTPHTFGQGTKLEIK
notes: Fully human; isolated from a phage display Fab library
- binding result (recombinant soluble FLT3 [3]): binds
- binding result (cell-surface FLT3): binds

B4: m1007 (antibody, V domains shown)
VH: EVQLVESGGGVVQPGGSLRLSCAASGFTFSSYGMHWVRQAPGKGLEWVAVISYDGSNKYYADSVKGRFTISRDNSKNTLYLQMNSLRAEDTAVYYCANLAPWAAYWGQGTLVTVSS
VL: not shown
notes: as for B3
- binding result (recombinant soluble FLT3 [3]): binds
- binding result (cell-surface FLT3): binds

B5: m1008 (scFv)
scFv: QVQLQESGPGLVKPSQTLSLTCTVSGGSISSSGYYWSWVRQSPGKGLEWIGEIYQSGNTNYNPSLKSRVTISVDKPKNQLSLKLGSVTAADTAVYYCARGGSYYDYWGQGTLVTVSSGGGGSGGGGSGGGGSQSVVTQPPSVSAAPGQKVTISCSGSNSNIGNNYVSWYQQLPGTAPKVLIYDNNVRPSGIPDRFSGSKSGTSATLGITGLQTGDEADYYCETWDSSLNVGMFGGGTQLIVL
notes: as for B2
- binding result (recombinant soluble FLT3 [2]): binds
- binding result (cell-surface FLT3): binds

— patent publication US20190352408A1 (US Dept. of Health and Human Services, published 2019)
